Experimental data: IntAct's records for PubMed 31515488

B1: Tektin-4 (Homo sapiens), Q8WW24 (parent)
chain: MAQTVPPCELPCKEYDVARNTGAYTSSGLATASFRTSKYLLEEWFQNCYARYHQAFADRDQSERQRHESQQLATETQALAQRTQQDSTRTVGERLQDTHSWKSELQREMEALAAETNLLLAQKQRLERALDATEVPFSITTDNLQCRERREHPNLVRDHVETELLKEAELIRNIQELLKRTIMQAVSQIRLNREHKETCEMDWSDKMEAYNIDETCGRHHSQSTEVQAHPYSTTFQESASTPETRAKFTQDNLCRAQRERLASANLRVLVDCILRDTSEDLRLQCDAVNLAFGRRCEELEDARYKLHHHLHKTLREITDQEHNVAALKQAIKDKEAPLHVAQTRLYLRSHRPNMELCRDAAQFRLLSEVEELNMSLTALREKLLEAEQSLRNLEDIHMSLEKDIAAMTNSLFIDRQKCMAHRTRYPTILQLAGYQ
partner: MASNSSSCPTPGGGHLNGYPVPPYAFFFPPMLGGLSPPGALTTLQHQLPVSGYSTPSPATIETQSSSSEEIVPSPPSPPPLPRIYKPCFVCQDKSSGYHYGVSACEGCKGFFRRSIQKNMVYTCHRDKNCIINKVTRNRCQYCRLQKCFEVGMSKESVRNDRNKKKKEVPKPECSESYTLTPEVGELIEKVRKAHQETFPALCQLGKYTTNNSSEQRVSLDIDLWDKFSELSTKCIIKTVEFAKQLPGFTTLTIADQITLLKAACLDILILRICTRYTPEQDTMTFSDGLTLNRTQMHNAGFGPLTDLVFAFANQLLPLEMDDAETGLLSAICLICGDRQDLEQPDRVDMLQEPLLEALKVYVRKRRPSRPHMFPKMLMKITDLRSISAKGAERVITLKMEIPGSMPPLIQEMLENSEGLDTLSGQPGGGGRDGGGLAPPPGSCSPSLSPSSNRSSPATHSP
B2: Inactive peptidyl-prolyl cis-trans isomerase FKBP6 (Homo sapiens), O75344 (parent)
chain: MGGSALNQGVLEGDDAPGQSLYERLSQRMLDISGDRGVLKDVIREGAGDLVAPDASVLVKYSGYLEHMDRPFDSNYFRKTPRLMKLGEDITLWGMELGLLSMRRGELARFLFKPNYAYGTLGCPPLIPPNTTVLFEIELLDFLDCAESDKFCALSAEQQDQFPLQKVLKVAATEREFGNYLFRQNRFYDAKVRYKRALLLLRRRSAPPEEQHLVEAAKLPVLLNLSFTYLKLDRPTIALCYGEQALIIDQKNAKALFRCGQACLLLTEYQKARDFLVRAQKEQPFNHDINNELKKLASCYRDYVDKEKEMWHRMFAPCGDGSTAGES
partner: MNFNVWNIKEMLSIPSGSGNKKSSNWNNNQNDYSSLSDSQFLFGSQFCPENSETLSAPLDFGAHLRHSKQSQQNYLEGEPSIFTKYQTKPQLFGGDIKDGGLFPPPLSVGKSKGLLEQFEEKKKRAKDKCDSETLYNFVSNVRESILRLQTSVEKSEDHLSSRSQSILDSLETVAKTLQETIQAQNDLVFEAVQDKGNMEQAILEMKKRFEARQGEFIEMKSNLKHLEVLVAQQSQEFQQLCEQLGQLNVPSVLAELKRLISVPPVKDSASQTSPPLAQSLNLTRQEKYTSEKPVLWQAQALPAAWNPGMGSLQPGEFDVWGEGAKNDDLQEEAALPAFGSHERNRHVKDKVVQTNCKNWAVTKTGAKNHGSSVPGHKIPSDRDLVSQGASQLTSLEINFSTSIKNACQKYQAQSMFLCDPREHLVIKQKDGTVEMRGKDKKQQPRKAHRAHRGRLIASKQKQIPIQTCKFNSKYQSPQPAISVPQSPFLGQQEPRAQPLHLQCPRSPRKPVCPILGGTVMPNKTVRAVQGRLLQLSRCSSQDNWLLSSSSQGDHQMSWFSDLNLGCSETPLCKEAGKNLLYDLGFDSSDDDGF
B3: Keratin-associated protein 26-1 (Homo sapiens), Q6PEX3 (parent)
chain: MSCPNYCSGNSNSGSLRTSRHIPLTSIDLCPTSVSCGDVLYLPTSSQDHTWVTDNCQETCGEPTSCQPVHCETGNLETSCGSSTAYYVPRPCQGSSFLPASFFSSSCLPVSCRPQRYVSSGCRPLRPLLNSYQPIGDCVPNAYRPQFCLSKSCQPQNLLTSGCQPSSCLAYRPQSLHVVSSSLRPLGPLFSGCQPLTHVFSTCRPSCSGL
partner: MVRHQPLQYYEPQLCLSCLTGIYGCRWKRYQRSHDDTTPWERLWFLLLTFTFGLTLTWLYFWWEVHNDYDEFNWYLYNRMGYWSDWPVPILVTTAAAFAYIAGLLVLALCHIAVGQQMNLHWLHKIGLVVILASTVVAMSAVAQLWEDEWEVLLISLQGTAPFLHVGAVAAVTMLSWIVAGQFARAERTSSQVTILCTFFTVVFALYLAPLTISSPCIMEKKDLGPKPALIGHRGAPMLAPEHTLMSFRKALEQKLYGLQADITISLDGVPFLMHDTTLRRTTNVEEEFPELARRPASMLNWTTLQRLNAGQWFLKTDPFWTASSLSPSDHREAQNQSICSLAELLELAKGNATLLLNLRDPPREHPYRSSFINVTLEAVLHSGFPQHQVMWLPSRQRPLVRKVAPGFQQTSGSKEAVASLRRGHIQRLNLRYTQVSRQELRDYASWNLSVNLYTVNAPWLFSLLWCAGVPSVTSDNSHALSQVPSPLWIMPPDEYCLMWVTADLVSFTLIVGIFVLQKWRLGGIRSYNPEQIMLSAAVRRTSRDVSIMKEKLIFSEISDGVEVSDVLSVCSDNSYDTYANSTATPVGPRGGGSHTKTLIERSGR
B4: Protein transport protein (Homo sapiens), Q15437 (parent)
chain: MATYLEFIQQNEERDGVRFSWNVWPSSRLEATRMVVPLACLLTPLKERPDLPPVQYEPVLCSRPTCKAVLNPLCQVDYRAKLWACNFCFQRNQFPPAYGGISEVNQPAELMPQFSTIEYVIQRGAQSPLIFLYVVDTCLEEDDLQALKESLQMSLSLLPPDALVGLITFGRMVQVHELSCEGISKSYVFRGTKDLTAKQIQDMLGLTKPAMPMQQARPAQPQEHPFASSRFLQPVHKIDMNLTDLLGELQRDPWPVTQGKRPLRSTGVALSIAVGLLEGTFPNTGARIMLFTGGPPTQGPGMVVGDELKIPIRSWHDIEKDNARFMKKATKHYEMLANRTAANGHCIDIYACALDQTGLLEMKCCANLTGGYMVMGDSFNTSLFKQTFQRIFTKDFNGDFRMAFGATLDVKTSRELKIAGAIGPCVSLNVKGPCVSENELGVGGTSQWKICGLDPTSTLGIYFEVVNQHNTPIPQGGRGAIQFVTHYQHSSTQRRIRVTTIARNWADVQSQLRHIEAAFDQEAAAVLMARLGVFRAESEEGPDVLRWLDRQLIRLCQKFGQYNKEDPTSFRLSDSFSLYPQFMFHLRRSPFLQVFNNSPDESSYYRHHFARQDLTQSLIMIQPILYSYSFHGPPEPVLLDSSSILADRILLMDTFFQIVIYLGETIAQWRKAGYQDMPEYENFKHLLQAPLDDAQEILQARFPMPRYINTEHGGSQARFLLSKVNPSQTHNNLYAWGQETGAPILTDDVSLQVFMDHLKKLAVSSAC
partner: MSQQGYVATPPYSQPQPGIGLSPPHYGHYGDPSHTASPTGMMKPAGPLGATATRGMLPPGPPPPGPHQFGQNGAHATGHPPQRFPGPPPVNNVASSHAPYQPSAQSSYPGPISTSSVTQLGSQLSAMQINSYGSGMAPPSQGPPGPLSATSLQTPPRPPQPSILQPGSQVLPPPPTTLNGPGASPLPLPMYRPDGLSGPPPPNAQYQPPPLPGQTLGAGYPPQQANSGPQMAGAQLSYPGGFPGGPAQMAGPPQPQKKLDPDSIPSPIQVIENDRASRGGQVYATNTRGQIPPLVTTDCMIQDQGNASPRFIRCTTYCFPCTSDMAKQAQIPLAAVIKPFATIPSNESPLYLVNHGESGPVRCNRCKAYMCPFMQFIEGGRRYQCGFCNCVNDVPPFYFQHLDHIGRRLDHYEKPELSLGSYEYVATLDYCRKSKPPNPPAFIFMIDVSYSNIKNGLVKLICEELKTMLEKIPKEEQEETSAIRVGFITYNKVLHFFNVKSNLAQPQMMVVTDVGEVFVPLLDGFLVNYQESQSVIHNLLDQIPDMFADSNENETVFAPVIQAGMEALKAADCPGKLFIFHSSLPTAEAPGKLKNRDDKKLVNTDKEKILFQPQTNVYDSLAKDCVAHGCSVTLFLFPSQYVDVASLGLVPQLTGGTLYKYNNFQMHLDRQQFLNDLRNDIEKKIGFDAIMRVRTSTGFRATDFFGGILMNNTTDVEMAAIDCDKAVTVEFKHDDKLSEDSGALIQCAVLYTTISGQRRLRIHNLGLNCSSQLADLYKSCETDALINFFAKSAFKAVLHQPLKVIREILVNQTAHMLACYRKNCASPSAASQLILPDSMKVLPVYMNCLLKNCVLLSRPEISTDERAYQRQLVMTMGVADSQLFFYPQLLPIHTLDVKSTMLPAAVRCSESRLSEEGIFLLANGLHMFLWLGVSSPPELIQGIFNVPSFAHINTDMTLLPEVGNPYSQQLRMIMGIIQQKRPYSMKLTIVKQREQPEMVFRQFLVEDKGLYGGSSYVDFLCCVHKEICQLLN
B5: Germ cell-less protein-like 1 (Homo sapiens), Q96IK5 (parent)
chain: MGSLSSRVLRQPRPALAQQAQGARAGGSARRPDTGDDAAGHGFCYCAGSHKRKRSSGSFCYCHPDSETDEDEEEGDEQQRLLNTPRRKKLKSTSKYIYQTLFLNGENSDIKICALGEEWSLHKIYLCQSGYFSSMFSGSWKESSMNIIELEIPDQNIDVEALQVAFGSLYRDDVLIKPSRVVAILAAACLLQLDGLIQQCGETMKETVNVKTVCGYYTSAGTYGLDSVKKKCLEWLLNNLMTHQNVELFKELSINVMKQLIGSSNLFVMQVEMDIYTALKKWMFLQLVPSWNGSLKQLLTETDVWFSKQRKDFEGMAFLETEQGKPFVSVFRHLRLQYIISDLASARIIEQDAVVPSEWLSSVYKQQWFAMLRAEQDSEVGPQEINKEELEGNSMRCGRKLAKDGEYCWRWTGFNFGFDLLVTYTNRYIIFKRNTLNQPCSGSVSLQPRRSIAFRLRLASFDSSGKLICSRTTGYQILTLEKDQEQVVMNLDSRLLIFPLYICCNFLYISPEKKN
partner: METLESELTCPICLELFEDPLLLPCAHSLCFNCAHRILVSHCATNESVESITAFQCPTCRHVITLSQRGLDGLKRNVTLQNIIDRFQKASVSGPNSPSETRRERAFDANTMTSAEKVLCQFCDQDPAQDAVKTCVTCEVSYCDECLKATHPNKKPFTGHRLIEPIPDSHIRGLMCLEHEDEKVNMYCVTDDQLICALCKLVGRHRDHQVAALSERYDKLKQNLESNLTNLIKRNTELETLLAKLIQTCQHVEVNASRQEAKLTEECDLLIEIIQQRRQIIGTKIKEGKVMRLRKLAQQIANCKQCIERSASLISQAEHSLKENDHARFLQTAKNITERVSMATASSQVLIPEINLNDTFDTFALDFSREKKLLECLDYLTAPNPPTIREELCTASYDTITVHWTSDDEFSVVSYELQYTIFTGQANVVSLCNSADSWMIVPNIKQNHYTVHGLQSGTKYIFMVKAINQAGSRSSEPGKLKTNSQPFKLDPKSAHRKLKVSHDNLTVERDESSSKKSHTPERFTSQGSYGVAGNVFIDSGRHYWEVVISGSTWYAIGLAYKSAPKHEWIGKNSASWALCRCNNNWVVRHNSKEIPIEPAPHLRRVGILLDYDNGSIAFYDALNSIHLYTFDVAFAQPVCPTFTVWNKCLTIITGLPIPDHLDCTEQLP

Variants of: B1
Settings: with rara_human RARA

Row | effect of a mutation on the interaction | Variant
1 | disrupting interaction strength | A80V

Variants of: B2
Settings: with iho1_human IHO1, Q8IYA8

Row | effect of a mutation on the interaction | Variant
2 | with no effect | R175Q
3 | with no effect | H287N

Variants of: B3
Settings: with gdpd5_human GDPD5, Q8WTR4

Row | effect of a mutation on the interaction | Variant
4 | with no effect | S26Y

Variants of: B4
Settings: with sc24d_human SEC24D

Row | effect of a mutation on the interaction | Variant
5 | with no effect | V426I

Variants of: B5
Settings: with tri18_human MID1, O15344

Row | Variant | effect of a mutation on the interaction
6 | R457H | with no effect
7 | I147V | with no effect
8 | Y61S | with no effect

Now from value to variant:

Row | effect of a mutation on the interaction | Variant
9 | with no effect | K281Q
10 | with no effect | K123R
11 | with no effect | E77K
